Measured values as given in patent publication US20250121075A1, “ALPHA-FETOPROTEIN BIOCONJUGATES FOR DISEASE TREATMENT” (priority 2021, published 2025).
Read-outs that look alike come from different tables or passages of the source.

B1: AFP-ABZ982 DPR 5.51: AFP-ABZ982 bioconjugate, average DPR 5.51 (conjugate, UniProt P02771 19-609, looked up)
Alpha-fetoprotein: RTLHRNEYGIASILDSYQCTAEISLADLATIFFAQFVQEATYKEVSKMVKDALTAIEKPTGDEQSSGCLENQLPAFLEELCHEKEILEKYGHSDCCSQSEEGRHNCFLAHKKPTPASIPLFQVPEPVTSCEAYEEDRETFMNKFIYEIARRHPFLYAPTILLWAARYDKIIPSCCKAENAVECFQTKAATVTKELRESSLLNQHACAVMKNFGTRTFQAITVTKLSQKFTKVNFTEIQKLVLDVAHVHEHCCRGDVLDCLQDGEKIMSYICSQQDTLSNKITECCKLTTLERGQCIIHAENDEKPEGLSPNLNRFLGDRDFNQFSSGEKNIFLASFVHEYSRRHPQLAVSVILRVAKGYQELLEKCFQTENPLECQDKGEEELQKYIQESQALAKRSCGLFQKLGEYYLQNAFLVAYTKKAPQLTSSELMAITRKMAATAATCCQLSEDKLLACGEGAADIIIGHLCIRHEMTPVNPGVGQCCTSSYANRRPCFSSLVVDETYVPPAFSDDKFIFHKDLCQAQGVALQTMKQEFLINLVKQKPQITEEQLEAVIADFSGLLEKCCQGQEQEVCFAEEGQKLISKTRAALGV
modifications: ABZ982 toxin conjugate, DPR 5.51
B2: AFP-ABZ982 DPR 6.28: AFP-ABZ982 bioconjugate, average DPR 6.28 (conjugate, UniProt P02771 19-609, looked up)
Alpha-fetoprotein: RTLHRNEYGIASILDSYQCTAEISLADLATIFFAQFVQEATYKEVSKMVKDALTAIEKPTGDEQSSGCLENQLPAFLEELCHEKEILEKYGHSDCCSQSEEGRHNCFLAHKKPTPASIPLFQVPEPVTSCEAYEEDRETFMNKFIYEIARRHPFLYAPTILLWAARYDKIIPSCCKAENAVECFQTKAATVTKELRESSLLNQHACAVMKNFGTRTFQAITVTKLSQKFTKVNFTEIQKLVLDVAHVHEHCCRGDVLDCLQDGEKIMSYICSQQDTLSNKITECCKLTTLERGQCIIHAENDEKPEGLSPNLNRFLGDRDFNQFSSGEKNIFLASFVHEYSRRHPQLAVSVILRVAKGYQELLEKCFQTENPLECQDKGEEELQKYIQESQALAKRSCGLFQKLGEYYLQNAFLVAYTKKAPQLTSSELMAITRKMAATAATCCQLSEDKLLACGEGAADIIIGHLCIRHEMTPVNPGVGQCCTSSYANRRPCFSSLVVDETYVPPAFSDDKFIFHKDLCQAQGVALQTMKQEFLINLVKQKPQITEEQLEAVIADFSGLLEKCCQGQEQEVCFAEEGQKLISKTRAALGV
modifications: ABZ982 toxin conjugate, DPR 6.28
B3: AFP-ABZ1827 DPR 3.35: AFP-ABZ1827 bioconjugate, average DPR 3.35 (conjugate, UniProt P02771 19-609, looked up)
Alpha-fetoprotein: RTLHRNEYGIASILDSYQCTAEISLADLATIFFAQFVQEATYKEVSKMVKDALTAIEKPTGDEQSSGCLENQLPAFLEELCHEKEILEKYGHSDCCSQSEEGRHNCFLAHKKPTPASIPLFQVPEPVTSCEAYEEDRETFMNKFIYEIARRHPFLYAPTILLWAARYDKIIPSCCKAENAVECFQTKAATVTKELRESSLLNQHACAVMKNFGTRTFQAITVTKLSQKFTKVNFTEIQKLVLDVAHVHEHCCRGDVLDCLQDGEKIMSYICSQQDTLSNKITECCKLTTLERGQCIIHAENDEKPEGLSPNLNRFLGDRDFNQFSSGEKNIFLASFVHEYSRRHPQLAVSVILRVAKGYQELLEKCFQTENPLECQDKGEEELQKYIQESQALAKRSCGLFQKLGEYYLQNAFLVAYTKKAPQLTSSELMAITRKMAATAATCCQLSEDKLLACGEGAADIIIGHLCIRHEMTPVNPGVGQCCTSSYANRRPCFSSLVVDETYVPPAFSDDKFIFHKDLCQAQGVALQTMKQEFLINLVKQKPQITEEQLEAVIADFSGLLEKCCQGQEQEVCFAEEGQKLISKTRAALGV
modifications: ABZ1827 toxin conjugate, DPR 3.35

What was measured:
SKOV3 cells = test: Cytotoxicity of AFP-ABZ982 and AFP-ABZ1827 bioconjugates, 4 day incubation; type: cell-based, human; settings: read-out: Average IC50 SKOV3 cells (n = 1); 4 days
Experimental: (§1) Bioconjugates containing ABZ981 with two different release functionalities (AFP-ABZ982 and AFP-ABZ1827) were subsequently prepared at DPRs of 2.5 to 6.3. Cells were incubated for 4 days in the presence of the compounds over an 8-point concentration range, with each concentration tested in triplicate. Two experiments performed using freshly thawed U937 cells gave similar results to U937 cells maintained in culture.

U937 cells = test: as above; type: cell-based, human; settings: 4 days
Experimental: as §1

[1] = freshly thawed cells, read-out: Average IC50 U937 freshly thawed cells (n = 2)
[2] = read-out: Average IC50 U937 cultured cells (n = 1), cells maintained in culture

Molecule	IC50 (SKOV3 cells)	IC50 (U937 cells; [1])	IC50 (U937 cells; [2])
B1	17.5 nM	1.71 nM	2.01 nM
B2	37 nM		6.55 nM
B3	66.4 nM	7.07 nM	5.52 nM
